Key:
FMCD animal models = assay: Metformin treatment of FMCD animal models, video-EEG seizure analysis; format: in vivo, mouse
Excerpt: In this experiment, metformin was intraperitoneally injected at a dose of […] into the FMCD animal models of Example 1 from P14 to P56 for early treatment and from P84 to P114 for late treatment.

eIF4E [1] = assay: Western blot of eIF4E knockdown by sheIF4E in cell lysates (Neuro2A); format: cell-based, mouse; conditions: vs shScramble
Procedure: The pSicoR vector digested with HpaI and XhoI restriction enzymes was ligated with the shScramble or the sheIF4E sequence in the presence of ligase to construct pSicoR-shScramble and pSicoR-sheIF4E vectors, respectively. Neuro2A cells were cultured and transfected with pSicoR to evaluate the translational downregulation of eIF4E in the same manner as in Example 1.2.
Construction of pCIG-MTOR mutant-IRES-GFP; mU6-shScramble or pCIG-MTOR mutant-IRES-GFP; mU6-sheIF4E vector and the inhibitory activity of sheIF4E against eIF4E were identified by western blot analysis using cell lysates.

eIF4E [2] = assay: Immunostaining for eIF4E in sheIF4E FMCD mice; format: in vivo, mouse; conditions: brain tissue at postnatal day 21
Excerpt: For the animal model, prepared in Example 2-1, in which eIF4E was knock-downed using sheIF4E, after embryos that had been electroporated with a plasmid carrying an mTOR mutant gene at embryonic day 14 (E14), in the same manner as in U.S. Pat. No. 9,629,346, were born, the mice expressing fluorescence were screened by flashlight (Electron Microscopy Science, USA).

ADK, IRSp53, and CREB1 = assay: Immunostaining for ADK, IRSp53 and CREB1 in sheIF4E FMCD mice; format: in vivo, mouse; conditions: mTOR p.Cys1483Tyr and p.Leu2427Pro mice, compared to shScramble mice
Excerpt: Therefore, the present inventors performed additional immunostaining in order to investigate in vivo knockdown effect on the expression of ADK, IRSp53, and CREB1 in the FMCD mice, and confirmed significant reduced expression of the genes (FIG. 9e). In the brain tissues at postnatal day 21 from the animal models established using pCIG-MTOR mutant-IRES-GFP; mU6-sheIF4E vector in the same manner as in Examples 1-3 and 3-1, the expression of ADK, IRSp53, and CREB1 was decreased with decreasing of eIF4E expression.
In order to examine whether sheIF4E-mediated in-vivo knockdown of eIF4E led to the expression downregulation of eIF4E-sensitive genes, expression of eIF4E-sensitive genes was analyzed by immunofluorescence. The immunofluorescence results are depicted in FIG. 9e. The animal models with the sheIF4E-mediated eIF4E knockdown characteristic and the shScramble mice were substantially the same as in Example 2-1.

[3] = tested on: FMCD animal models (mTOR p.C1483Y, mTOR p.L2427P); assay: Video seizure monitoring in FMCD animal models with sheIF4E-mediated eIF4E knockdown; format: in vivo, mouse
Procedure: In FMCD animal models, the onset of epilepsy starts at postnatal day 21 on average and has been completed within postnatal day 50. Video EGG monitoring was conducted from 3 weeks after birth. EGG signals were recorded for 12 hours per day three times in a week from postnatal day 21 to postnatal day 120. From the 12-hour video recordings, the number and length of seizures were measured.
From the 12-hours video recordings, the number and length of seizures were measured (FIG. 10).

[4] = tested on: FMCD epilepsy animal models; assay: Cortical dysplasia, neuron size and synaptic spine density in sheIF4E FMCD mice; format: in vivo, mouse
Procedure: Then, mice born following the electroporation of Example 1-6 were analyzed for neuronal cell size and synaptic spine density. Neuronal cell size was measured in ImageJ software (http://rsbweb.nih.gov/ij/). Synaptic spines were counted using a 63× objective lens. Ten basal dendrites were acquired per subject, and measured in electroporated cells expressing a GFP reporter, using manual counting. For neuronal cell size (FIG. 12), mouse brain tissues at postnatal day 21 were acquired and the size of GFP (green)-positive mutant cells (shScramble or sheIF4E expressed) was measured. For synaptic spine density (FIG. 13), mouse brain tissues at postnatal day 21 were acquired and synaptic spines of basal dendrites were counted in GFP (green)-positive mutant cells (shScramble or sheIF4E expressed).
In addition, for cortical dysplasia (FIG. 11), mouse brain tissues at postnatal day 7 of Example 2-1 were acquired and distributions of GFP (green)-positive mutant cells (shScramble or sheIF4E expressed) in the cortex were detected (n=5 in each case. Scale bar=100 μm. Mean±SEM).

[5] = tested on: FMCD and epilepsy animal models (mTOR-p.C1483Y, mTOR-p.L2427P); format: in vivo, mouse
Procedure: (§1) Behaviors were recorded and analyzed using EthoVision XT (Noldus).
(§2) Experiments were performed on the FMCD and epilepsy animal models (mTOR-p.C1483Y, mTOR-p.L2427P) of Example 7-1 and the control normal animal models (mTOR-WT). The same sheIF4E as that described in Example 2 was used. Week 2 after sheIF4E injection, the handling was performed in the animals. Week 3 after sheIF4E injection, the animals were subjected to the behavioral tests.
(§3) The epilepsy animal models were subjected to the substantially same behavioral abnormality assay as in Example 6. The results are depicted in FIGS. 28 and 29.
(§4) Briefly, ASO #77 was administered by ICV injection to the FMCD and epilepsy animal models were generated with the pCIG-mTOR mutant-IRES-EGFP of Example 1. ASO #77 was evaluated for therapeutic potential for neuropsychiatric disorder accompanying the FMCD epilepsy animal models in the substantially same manner as in Example 6.

[6] = tested on: FMCD and epilepsy animal models (mTOR-p.C1483Y, mTOR-p.L2427P); assay: Light & dark box test, FMCD epilepsy models; format: in vivo, mouse; conditions: mU6-sheIF4E models compared to mU6-shscramble models
Procedure: as §1, §2, §3, §4

[7] = tested on: FMCD and epilepsy animal models (mTOR-p.C1483Y, mTOR-p.L2427P); assay: Social avoidance test, FMCD epilepsy models; format: in vivo, mouse; conditions: mU6-sheIF4E models compared to mU6-shscramble models
Procedure: The arena was a black box (400×400 mm).
as §2, §3, §4

[8] = tested on: FMCD and epilepsy animal models (mTOR-p.C1483Y, mTOR-p.L2427P); assay: 3-Chamber test (social interaction), FMCD epilepsy models; format: in vivo, mouse; conditions: mU6-sheIF4E models compared to mU6-shscramble models
Procedure: The 3-Chamber test measures social interaction and preference for social novelty. This apparatus consisted of three chambers with dimensions of 12×20×26 cm for the center chamber and dimensions of 14×20×26 cm for the opposite side chambers. Each of the opposite side chambers included a plastic cage (11 cm in diameter, 2.15 cm in height) for an object or stranger mouse in a corner. This experiment consisted of three sessions of habituation (10 min), exploring object/mouse (10 min), and exploring familiar/new mouse (10 min). In the second session, a WT stranger mouse was randomly placed in a plastic cage while the opposite plastic cage was empty. The mouse was allowed to freely explore the whole apparatus. The time spent in each chamber was measured and then used for the subsequent social interaction test. In the last session, a new WT stranger was placed in the empty plastic cage.
Experiments were performed on the FMCD and epilepsy animal models (mTOR-p.C1483Y, mTOR-p.L2427P) of Example 7-1 and the control normal animal models (mTOR-WT). […]
as §4

[9] = tested on: FMCD and epilepsy animal models (mTOR-p.C1483Y, mTOR-p.L2427P); assay: Marble burying test, FMCD epilepsy models; format: in vivo, mouse; conditions: mU6-sheIF4E models compared to mU6-shscramble models
Procedure: A mouse was placed in the cage.
as §2, §3, §4

[10] = tested on: FMCD and epilepsy animal models (mTOR-p.C1483Y, mTOR-p.L2427P); assay: Sucrose preference test, FMCD epilepsy models; format: in vivo, mouse; conditions: mU6-sheIF4E models compared to mU6-shscramble models
Procedure: Each of mice was habituated for 3-5 days in a cage with two selectable water bottles presented. Thereafter, the mice were each placed in the same cage as the habituation cage at the day of experiment. The mice were presented with two dual bottles, one containing tap water and the other containing 1% sucrose solution. Water and sucrose solution intake was measured after 24 hours and sucrose preference was calculated according to volume of sucrose intake/total volume of fluid intake×100%.
The same sheIF4E as that described in Example 2 was used. Week 2 after sheIF4E injection, the handling was performed in the animals. Week 3 after sheIF4E injection, the animals were subjected to the behavioral tests.
The epilepsy animal models were subjected to the substantially same behavioral abnormality assay as in Example 6.
as §4

Row | Molecule | seizure onset (FMCD animal models; early treatment P14 to P56, intraperitoneal, 200 m/kg) | seizure frequency and duration (FMCD animal models; epilepsy animal models, FIGS. 14 and 15) | seizure frequency (FMCD animal models; late treatment P84 to P114, intraperitoneal, 200 m/kg) | knockdown of eIF4E by western blot (eIF4E [1]) | eIF4E expression in sheIF4E-expressing neurons (immunostaining) (eIF4E [2]) | expression of eIF4E sensitive genes ADK, IRSp53, and CREB1 (ADK, IRSp53, and CREB1) | frequency and time of seizure ([3]; FMCD animal models in which epilepsy was generated) | spontaneous seizures ([3]; FMCD epilepsy mice) | animals with seizure ([3]; mTOR p.L2427P mutation, video recordings until postnatal day 120) | cortical dysplasia ([4]; brain tissue at postnatal day 7) | defective neuronal migration ([4]; mTOR mutant mice) | decreased synaptic spine density ([4]; postnatal day 21) | hypertrophic soma (neuronal cell size) ([4]; postnatal day 21) | time spent in center (index of anxiety) ([5]; mU6-sheIF4E models compared to mU6-shscramble models) | dyskinesia (behavior test) ([5]; mouse, in vivo) | time spent in center (residence time within the light box) [6] | time spent to interact with the stranger mouse (social ability and depression) [7] | time spent in sniffing zone (social ability) [8] | number of buried marbles (repetitive behavior) [9] | % sucrose preference [10]
1 | CN(C)C(=N)N=C(N)N [metformin] | prevented seizure onset | reduction of seizure frequency and duration | suppressed seizure frequency |  |  |  |  |  |  |  |  |  |  |  |  |  |  |  |  | 
2 | sheIF4E: shRNA against eIF4E, sense SEQ ID NO: 203 and antisense SEQ ID NO: 204, expressed from mU6 promoter in pCIG-mTOR mutant vector (nucleic acid) sense: TCGATTGATCTCTAAGTTTGATTTCAAGAGAATCAAACTTAGAGATCAATCGTTTTTTCTCGA antisense: TCGAGAAAAAACGATTGATCTCTAAGTTTGATTCTCTTGAAATCAAACTTAGAGATCAATCGA |  |  |  | efficient knockdown | significantly reduced | significantly reduced | remarkably decreased | almost completely rescued | five of 20 | remarkably reduced | significantly alleviated | rescued | rescued | increased | no dyskinesia | increased | increased | increased | increased | increased
